This assay has as its target glucagon receptor (GCGR). Description: cell-based or functional assay.

Bridge positions count the residues as written; N and C are the ends. Square brackets hold non-standard residues; d marks the D form. Ends that are not written are not given here. Orn = NCCC[C@H](N)C(=O)O

The record followed here is patent US20240116999A1 (TRUSTEES OF INDIANA UNIVERSITY, published 2024).

For the molecule HSQGTFTSDYS[Orn]KLDSE[Orn]AQDFVQWLMNTEEK (lactam 13-17) [O12, O18, K13, E17-Lactam-Glucagon-EEK], the “EC50, cell-based cyclic AMP (cAMP) activity assay” value worked out at 126 nM.

On to HSQGTFTSDYS[Orn]YLDS[Orn][Orn]AQDFVQWLMNTEEK [Glucagon-EEK], for which the “EC50, cell-based cyclic AMP (cAMP) activity assay” value amounted to 93.5 nM.
